Assay results published in patent US12304939B2, “EGFR and C-met fibronectin type III domain binding molecules” (Janssen Biotech, Inc., priority 2012, dated 2025).
“And” between values parts separate entries of the source, which are not always exact repeats. Equal values may be shown once. “Also recorded” adds a separate entry of the source. Blank lines part the entries; values can stand above or below the molecule they belong to.

Key:
[1] = Body weight loss and tolerability in the H292-HGF xenograft study; settings: mouse, in vivo
Protocol: At the time of routine monitoring, the animals were checked for any effects of tumor growth and treatments on normal behavior, such as mobility, visual estimation of food and water consumption, body weight gain/loss (body weights were measured twice weekly), eye/hair matting and any other abnormal effect.
Animals for which the body weight loss exceeded 20%, or for which the mean tumor size of the group exceeds 2000 mm^3 were euthanized. The study was terminated after two weeks of observation after the final dose.

[2] = test system: H292-HGF human lung cancer xenograft; experiment: Efficacy of bispecific molecule and other inhibitors of EGFR and c-Met, subcutaneous H292-HGF human lung cancer xenograft; format: in vivo, SCID/Beige mice; settings: for antitumor activity (in words): mouse, in vivo; for Tumor volume: mean ± SEM
Protocol: The H292-HGF cells were maintained in vitro in RPMI1640 medium supplemented with fetal bovine serum (10% v/v), and L-glutamine (2 mM) at 37° C. in an atmosphere of 5% CO2 in air. The cells were routinely subcultured twice weekly by trypsin-EDTA treatment. The cells growing in an exponential growth phase were harvested and counted for tumor inoculation.
Each mouse was inoculated subcutaneously at the right flank region with H292-HGF tumor cells (2×10^6) in 0.1 ml of PBS with cultrex (1:1) for tumor development. The treatments were started when the mean tumor size reached 139 mm3. […] The date of tumor cell inoculation was denoted as day 0.
Before commencement of treatment, all animals were weighed, and the tumor volumes were measured. Since the tumor volume can affect the effectiveness of any given treatment, mice were assigned into groups using randomized block design based upon their tumor volumes. […] The randomized block design was used to assign experimental animals to groups. First, the experimental animals were divided into homogeneous blocks according to their initial tumor volume. Secondly, within each block, randomization of experimental animals to treatments was conducted.
The endpoint was whether tumor growth can be delayed or tumor bearing mice can be cured. Tumor size was measured twice weekly in two dimensions using a caliper, and the volume was expressed in mm3 using the formula: V=0.5 a×b2 where a and b are the long and short diameters of the tumor, respectively. The tumor size was then used for calculations of both T-C and T/C values. T-C was calculated with T as the time (in days) required for the mean tumor size of the treatment group to reach 1000 mm3, and C was the time (in days) for the mean tumor size of the control group to reach the same size. The T/C value (in percent) was an indication of antitumor efficacy; T and C were the mean tumor volume of the treated and control groups, respectively, on a given day. Complete tumor regression (CR) is defined as tumors that are reduced to below the limit of palpation (62.5 mm3). Partial tumor regression (PR) is defined as tumors that are reduced from initial tumor volume. A minimum duration of CR or PR in 3 or more successive tumor measurements is required for a CP or PR to be considered durable.
Statistical analyses of difference in tumor volume among the groups were evaluated using a one-way ANOVA followed by individual comparisons using Games-Howell (equal variance not assumed). All data were analyzed using SPSS 18.0. p<0.05 was considered to be statistically significant.

[3] = target: T1, EGFR (Homo sapiens, UniProt P00533); experiment: Inhibition of EGFR phosphorylation in NCI-H292 cells; format: cell-based; design: host or cells: NCI-H292; settings: FIG. 5A
Protocol: Purified EGFR-binding FN3 domains were tested for their ability to inhibit EGF-stimulated phosphorylation of EGFR in A431 cells at a single concentration. EGFR phosphorylation was monitored using the EGFR phospho(Tyr1173) kit (Meso Scale Discovery). […] Controls were treated with starvation medium only. […] One set of control wells was left un-stimulated as negative controls. Medium was completely removed, and cells were lysed with 100 μL/well of Complete Lysis Buffer (Meso Scale Discovery) for 10 minutes at room temperature with shaking, as per the manufacturer's instructions. […] Signals were detected by addition of 150 μL/well of Read Buffer (Meso Scale Discovery) and reading on a SECTOR® Imager 6000 instrument (Meso Scale Discovery) using manufacturer-installed assay-specific default settings. Percent inhibition of the EGF-stimulated positive control signal was calculated for each EGFR-binding FN3 domain.
NCI-H292, NCI-H441, or NCI-H596 cells were plated in 96 well plates in RPMI medium containing 10% FBS. […] Cells were lysed with MSD Lysis Buffer and cell signaling was assessed using appropriate MSD Assay plates, according to manufacturer's instructions, as described above.

[4] = target: T1, EGFR; experiment: Inhibition of EGFR phosphorylation in NCI-H596 cells; format: cell-based; design: host or cells: NCI-H292; settings: FIG. 5B
Protocol: (§1) NCI-H292, NCI-H441, or NCI-H596 cells were plated in 96 well plates in RPMI medium containing 10% FBS. 24 hours later, medium was replaced with serum free RPMI. […] Cells were treated for 1 h with the monospecific or bispecific molecules and then stimulated with EGF, HGF, or a combination of EGF and HGF for 15 minutes at 37° C., 5% CO2. Cells were lysed with MSD Lysis Buffer and cell signaling was assessed using appropriate MSD Assay plates, according to manufacturer's instructions, as described above.

[5] = target: T1, EGFR; experiment: Inhibition of EGFR phosphorylation in NCI-H441 cells; format: cell-based; design: host or cells: NCI-H292; settings: FIG. 5C
Protocol: as §1

[6] = test system: NCI-H292 cells expressing human HGF; experiment: Tumor efficacy study with four bispecific EGFR/c-Met molecules, H292-HGF xenografts; format: in vivo, SCID Beige mice; settings: 25 mg/kg three times per week
Protocol: One week after implantation, mice were stratified into groups with equivalent tumor volumes (mean tumor volume=77.9+/−1.7 mm3). Mice were dosed three times per week with the bispecific molecules and tumor volumes were recorded twice weekly.

[7] = target: T2, c-Met-Fc fusion protein (Homo sapiens, UniProt P08581); experiment: c-Met-Fc affinity by surface plasmon resonance (Proteon); format: binding
T2 construct: recombinant EGFR and/or c-Met extracellular domain
T2 sequence (P08581 25-932 limits assumed): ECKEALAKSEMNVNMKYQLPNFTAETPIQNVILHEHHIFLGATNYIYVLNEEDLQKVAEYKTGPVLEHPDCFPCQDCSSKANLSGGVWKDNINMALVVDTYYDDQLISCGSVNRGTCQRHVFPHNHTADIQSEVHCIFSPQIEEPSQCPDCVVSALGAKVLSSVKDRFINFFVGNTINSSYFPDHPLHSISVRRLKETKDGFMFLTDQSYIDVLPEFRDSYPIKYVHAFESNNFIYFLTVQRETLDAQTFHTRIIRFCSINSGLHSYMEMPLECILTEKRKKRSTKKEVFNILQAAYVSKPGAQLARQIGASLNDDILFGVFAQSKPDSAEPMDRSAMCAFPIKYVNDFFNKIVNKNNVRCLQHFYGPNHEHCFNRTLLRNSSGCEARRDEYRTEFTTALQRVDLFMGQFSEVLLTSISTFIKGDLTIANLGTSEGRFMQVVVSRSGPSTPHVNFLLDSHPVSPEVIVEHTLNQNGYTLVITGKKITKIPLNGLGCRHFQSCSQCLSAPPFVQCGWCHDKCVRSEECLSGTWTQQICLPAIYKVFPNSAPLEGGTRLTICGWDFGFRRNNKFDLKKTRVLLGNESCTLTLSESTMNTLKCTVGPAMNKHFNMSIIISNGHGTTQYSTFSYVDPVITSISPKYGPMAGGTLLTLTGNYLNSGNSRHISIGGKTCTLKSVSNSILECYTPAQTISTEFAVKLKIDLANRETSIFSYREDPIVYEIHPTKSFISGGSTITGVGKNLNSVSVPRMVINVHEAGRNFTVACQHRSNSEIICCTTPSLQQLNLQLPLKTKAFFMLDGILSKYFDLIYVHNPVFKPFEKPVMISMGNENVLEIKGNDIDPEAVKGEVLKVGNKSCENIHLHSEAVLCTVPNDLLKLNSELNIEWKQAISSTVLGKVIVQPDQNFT

[8] = test system: H292 cells; experiment: Inhibition of proliferation of HGF-induced H292 cells; format: cell-based, human; settings: bispecific molecules
Description: Inhibition of tumor cell proliferation can be measured using standard methods and methods described herein.
The proliferation assay was completed using different combinations EGFR and c-Met binding FN3 domains either as a mixture or linked in a bispecific format. […] This confirmed that the avidity effect observed at the level of the receptors (FIG. 4 and FIG. 5) translates into an improvement in inhibiting cell signaling (Table 12) and cell proliferation (Table 13).
(§2) Inhibition of human tumor cell growth was assessed in standard attachment culture as described in Examples 3 or 6, or in low attachment conditions.

[9] = test system: cell lines shown in Table 20; experiment: Inhibition of human tumor cell growth by bispecific molecule in cell line panel (standard or low attachment); format: cell-based
Protocol: as §2

[10] = target: T3, recombinant EGFR extracellular domain (EGFR-Fc) (Homo sapiens, UniProt P00533); experiment: EGFR-Fc affinity by surface plasmon resonance (Proteon); format: binding; settings: bispecific molecules; read-out: KD (EGFR)
T3 construct: purchased R&D Systems
Protocol: Select EGFR-binding FN3 domains were screened to identify those with slow off-rates (koff) in binding to EGFR-Fc on a ProteOn XPR-36 instrument (Bio-Rad) to facilitate selection of high affinity binders. Goat anti-human Fc IgG (R&D systems), at a concentration of 5 μg/mL, was directly immobilized via amine coupling (at pH 5.0) on all 6 ligand channels in horizontal orientation on the chip with a flow rate of 30 μL/min in PBS containing 0.005% Tween-20. The immobilization densities averaged about 1500 Response Units (RU) with less than 5% variation among different channels. EGFR-Fc was captured on the anti-human Fc IgG surface to a density around 600 RU in vertical ligand orientation. All tested FN3 domains were normalized to a concentration of 1 μM and tested for their binding in horizontal orientation. […] The dissociation phase was monitored for 10 minutes at a flow rate of 100 μL/min. […]
Binding affinity of selected EGFR-binding FN3 domains to recombinant EGFR extracellular domain was further characterized by surface Plasmon resonance methods using a Proteon Instrument (BioRad). […] The dissociation phase for all concentrations of each EGFR-binding FN3 domain was monitored at a flow rate of 100 μL/min for 30 minutes (for those with koff ˜10^−2 s^−1 from off-rate screening), or 1 hour (for those with koff ˜10^−3 s^−1 or slower). […]

[11] = listed as bispecific EGFR/c-Met molecule
[12] = serine mutants of A3 in the context of ECB15

Molecule: C#Cc1cccc(Nc2ncnc3cc(OCCOC)c(OCCOC)cc23)c1 [Erlotinib, erlotinib, reference compound]
toxicity, body weight loss, tolerability (in words) [1]: More severe body weight loss

Molecule: C[C@@H](Oc1cc(-c2cnn(C3CCNCC3)c2)cnc1N)c1c(Cl)ccc(F)c1Cl [Crizotinib, crizotinib, reference compound]
antitumor activity (in words) [2]: no antitumor activity
toxicity, body weight loss, tolerability (in words) [1]: More severe body weight loss

inhibition of phosphorylation of EGFR, bispecific versus monospecific [3]: comparable
inhibition of phosphorylation of EGFR, bispecific versus monospecific [4]: comparable
decrease of IC50 for inhibition of EGFR phosphorylation compared to monospecific EGFR-binding FN3 domain [5]: 30 fold
B1: ECB5: bispecific SEQ ID NO: 54: P53A1R5-17v2, (GGGGS)4, P114AR7P94-A3 (protein)
chain: MLPAPKNLVVSEVTEDSARLSWADPHGFYDSFLIQYQESEKVGEAIVLTVPGSERSYDLTGLKPGTEYTVSIYGVHNVYKDTNMRGLPLSAIFTTGGGGSGGGGSGGGGSGGGGSMLPAPKNLVVSRVTEDSARLSWTAPDAAFDSFWIRYFEFLGSGEAIVLTVPGSERSYDLTGLKPGTEYVVNIMGVKGGKISPPLSAIFTT
modifications: bispecific EGFR/cMet binding molecule

B2: ECB38: bispecific SEQ ID NO: 120: P54AR4-83v2, (AP)5, P114AR7P94-A3, linked to albumin binding domain (protein)
chain: MLPAPKNLVVSEVTEDSARLSWDDPWAFYESFLIQYQESEKVGEAIVLTVPGSERSYDLTGLKPGTEYTVSIYGVHNVYKDTNMRGLPLSAIFTTAPAPAPAPAPLPAPKNLVVSRVTEDSARLSWTAPDAAFDSFWIRYFEFLGSGEAIVLTVPGSERSYDLTGLKPGTEYVVNIMGVKGGKISPPLSAIFTTAPAPAPAPAPLAEAKVLANRELDKYGVSDYYKNLINNAKTVEGVKALLDEILAALP
modifications: Bispecific EGFR/c-Met binding molecule
tumor growth (tumor growth inhibition, TGI) [6]: reduced tumor growth
tumor growth (tumor growth inhibition, TGI) ([6]; listed as P54AR4-83v2-P114AR7P94-A3): showed the most efficacy
Tumor Size at day 23 ([2]; bispecific 25 mg/kg, crizotinib, erlotinib 50 mg/kg, cetuximab 1 mg/mouse, listed as bispecific EGFR/c-Met molecule): 23 mm^3 and 23 ± 7 mm^3
Tumor volume ([2]; day 7 (start of treatment)): 137 ± 7 mm^3
Tumor volume ([2]; day 9): 142 ± 7 mm^3
Tumor volume ([2]; day 13): 83 ± 6 mm^3
Tumor volume ([2]; day 16): 44 ± 7 mm^3
Tumor volume ([2]; day 20): 30 ± 6 mm^3
Tumor volume ([2]; day 23): 23 ± 7 mm^3
Tumor volume ([2]; day 27): 21 ± 5 mm^3
Tumor volume ([2]; day 30): 23 ± 6 mm^3
antitumor activity (in words) [2, 11]: complete tumor regression (CR) in all mice; also recorded: complete response
toxicity, body weight loss, tolerability (in words) [1, 11]: Slight toxicity; also recorded: tolerated in 7 out of 10 mice

ka [7, 12]: 351000 M⁻¹ s⁻¹
kd [7, 12]: 0.000133 s⁻¹
IC50 [8]: 23 nM
B3: ECB15: bispecific SEQ ID NO: 57: P54AR4-83v2, (AP)5, P114AR7P94-A3 (protein)
chain: MLPAPKNLVVSEVTEDSARLSWDDPWAFYESFLIQYQESEKVGEAIVLTVPGSERSYDLTGLKPGTEYTVSIYGVHNVYKDTNMRGLPLSAIFTTAPAPAPAPAPLPAPKNLVVSRVTEDSARLSWTAPDAAFDSFWIRYFEFLGSGEAIVLTVPGSERSYDLTGLKPGTEYVVNIMGVKGGKISPPLSAIFTT
modifications: bispecific EGFR/cMet binding molecule
growth of NCI-H1975 cell line ([9]; EGFR L858R, T790M): inhibited growth
tumor cell growth of cell lines shown in Table 20 ([9]; wild type, amplified or mutant EGFR, wild type or amplified c-Met): inhibited tumor cell growth

Kd [10]: 0.4 nM
Kd ([7]; bispecific molecules, read-out: KD (c-Met)): 0.32 nM
IC50 [8]: 3.1 nM
B4: ECB168: bispecific SEQ ID NO: 190: P54AR4-83v22, (AP)5, P114AR7P95-C5v2 (protein)
chain: MLPAPKNLVVSEVTEDSARLSWDDPWAFYESFLIQYQESEKVGEAIVLTVPGSERSYDLTGLKPGTEYTVSIYGVHNVYKDTNIRGLPLSAIFTTAPAPAPAPAPLPAPKNLVVSRVTEDSARLSWTAPDAAFDSFWIRYFEFLGSGEAIVLTVPGSERSYDLTGLKPGTEYVVNILSVKGGSISPPLSAIFTT
modifications: Bispecific EGFR/c-Met molecule
